One test deals with T1, BSA蛋白 (UniProt P02769 25-607).
T1 construct: Control protein in the ELISA; also called 对照蛋白
Kind of test: ELISA, BSA coated at 2 μg/mL, dilution series of B48, detected by anti-HA and HRP goat anti-mouse IgG. For orientation: An ELISA detects its analyte on a solid surface through an enzyme-linked reagent.

The target in a further test is T2, BCMA蛋白 (human, UniProt Q02223 1-54).
T2 construct: extracellular domain; also called 抗原BCMA; B cell maturation antigen
T2 sequence (looked up): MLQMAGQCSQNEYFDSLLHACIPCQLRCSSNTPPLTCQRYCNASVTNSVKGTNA
Kind of test: ELISA, BCMA coated at 2 μg/mL, dilution series of B48, detected by anti-HA and HRP goat anti-mouse IgG.

T1 sequence (P02769 25-607 limits assumed): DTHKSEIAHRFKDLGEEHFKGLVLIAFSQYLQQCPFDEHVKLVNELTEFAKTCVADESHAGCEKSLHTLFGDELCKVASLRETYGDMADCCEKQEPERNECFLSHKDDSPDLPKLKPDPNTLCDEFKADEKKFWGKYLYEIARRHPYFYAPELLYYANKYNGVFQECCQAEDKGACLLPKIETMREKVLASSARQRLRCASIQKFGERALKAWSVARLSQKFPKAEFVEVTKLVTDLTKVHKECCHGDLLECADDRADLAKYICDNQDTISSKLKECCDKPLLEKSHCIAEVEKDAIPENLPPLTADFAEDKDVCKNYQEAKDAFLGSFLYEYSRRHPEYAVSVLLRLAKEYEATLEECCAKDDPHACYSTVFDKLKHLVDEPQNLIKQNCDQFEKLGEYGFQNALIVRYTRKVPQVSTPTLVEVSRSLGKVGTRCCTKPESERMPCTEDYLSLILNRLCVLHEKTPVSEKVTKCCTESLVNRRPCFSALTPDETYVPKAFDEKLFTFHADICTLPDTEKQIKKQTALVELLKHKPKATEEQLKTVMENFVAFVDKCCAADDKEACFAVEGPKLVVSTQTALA

B1: 抗BCMA单链抗体B48 (scFv)
scFv: QVQLVESGGDLVQPGGSLRLSCAASGFTFDDYAMHWVRQAPGKGLEWVSGISWNSGSIGYADSVKGRFTISRDNAKNSLYLQMNSLRAEDTALYYCAKIAGGAFDIWGQGTMVTVSSGGGGSGGGGSGGGGSDIRMTQSPSTLSASVGDRVTITCQASQNIGHFLAWYQHKPGKAPKLLIYAASTLQSGVPSRFSGSGSGTDFTLTISSLQPEDFGTYYCHHYVTVPLTFGQGTRVEIK
notes: Expressed in E. coli BL21 from pET-26b with an N-terminal pelB signal peptide (secreted to the periplasm); Purified protein carries C-terminal HA and 6xHis tags; also called B48单链抗体; not shown: C-terminal 6xHis tag from the vector pET-26b; vector residues between the insert
Turning to B1, in the test with BSA蛋白, the binding result is listed as “no binding”. Besides, a half-maximal response with BCMA蛋白 (EC50) required 34 nM.

The record behind these values is patent CN112851814A (XIAN YUFAN BIOTECHNOLOGIES CO LTD, dated 2021).
